Assay [1] has as its target human 4-1BB (CD137) on cells (human, UniProt Q07011 24-255). The experiment in a line: cell-based or functional assay.
The next assay deals with T1, FcγRIa (human, UniProt P12314 16-288, limits assumed, biotinylated).
T1 construct: Bought His-tagged protein captured on anti-His chip; also called CD64 Protein, Human, Recombinant (His Tag), Biotinylated
In words: SPR (Biacore 8K); His-tagged FcγR captured on anti-His chip. In general terms: SPR reads the build-up and loss of mass on a sensor chip optically.

Another assay has as its target T2, FcγRIIIa-V158 (human, UniProt P08637 17-208).
T2 construct: Bought His-tagged protein
Described as above.

In a further assay the target is T3, FcγRIIIa-F158 (human, UniProt P08637 17-208).
T3 construct: extracellular domain; Bought His-tagged protein
T3 sequence (P08637 17-208): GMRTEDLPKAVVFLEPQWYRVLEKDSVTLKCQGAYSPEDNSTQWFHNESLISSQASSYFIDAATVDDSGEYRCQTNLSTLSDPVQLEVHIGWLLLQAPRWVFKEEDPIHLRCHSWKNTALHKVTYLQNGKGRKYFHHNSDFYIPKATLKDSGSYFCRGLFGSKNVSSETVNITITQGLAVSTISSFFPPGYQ
The assay is described as above.

The target in assay [2] is T4, full length human EpCAM on cells (human, UniProt P16422 24-314).
T4 construct: the cell line is named under assay; also called EpCAM on DiFi, HPAF-II and A549 tumor cells; CHO-S cells transfected with full length human EpCAM
T4 sequence: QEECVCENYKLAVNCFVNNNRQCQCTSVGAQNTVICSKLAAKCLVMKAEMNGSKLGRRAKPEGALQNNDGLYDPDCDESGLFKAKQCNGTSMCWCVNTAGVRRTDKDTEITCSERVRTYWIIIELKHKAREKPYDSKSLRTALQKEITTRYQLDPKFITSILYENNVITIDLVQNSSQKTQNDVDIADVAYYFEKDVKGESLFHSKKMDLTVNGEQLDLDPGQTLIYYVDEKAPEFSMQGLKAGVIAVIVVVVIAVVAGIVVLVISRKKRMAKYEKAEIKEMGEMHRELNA
In words: flow cytometry on DiFi tumor cells.
Description: Binding to the EpCAM-expressing human tumor cell lines DiFi, HPAF-II and A549 by bivalent EpCAM antibodies or bispecific antibodies carrying one EpCAM-binding arm was analyzed by flow cytometry. […] Next, cells were washed once (A-D) or twice (E) in FACS buffer, re-suspended in 100 μL FACS buffer and analyzed on a BD LSRFortessa FACS (BD Biosciences, USA), Celesta (BD Biosciences, USA) or iQue (Sartorius, Germany). Binding curves were analyzed using non-linear regression (sigmoidal dose-response with variable slope) using GraphPad Prism V7.02 software (GraphPad Software, San Diego, CA, USA).

Assay [3] addresses T5, neonatal Fc receptor (FcRn), His-tagged (SinoBiological, cat. no. CT009-H08H-B) (UniProt P55899 24-297). The experiment in a line: SPR kinetics assay at pH 6.0; His-tagged FcRn captured on anti-His chip, antibody 0-500 nM.
Description: (§1) In a separate experiment, binding to neonatal Fc receptor (FcRn) was tested by SPR, using a kinetics assay with the following changes to the methods described above. […] Experiments were performed three times at pH 6.0 (under acidic conditions, at which IgG binds to FcRn) and two times at pH 7.4 (binding to IgG is not expected at this pH).
The target of the next assay is T6, FcγRIIa-H131 (human, UniProt P12318 34-218, limits assumed).
T6 construct: Bought His-tagged protein; also called CD32A Protein, Human, Recombinant (167 His, His Tag)
T6 sequence (looked up): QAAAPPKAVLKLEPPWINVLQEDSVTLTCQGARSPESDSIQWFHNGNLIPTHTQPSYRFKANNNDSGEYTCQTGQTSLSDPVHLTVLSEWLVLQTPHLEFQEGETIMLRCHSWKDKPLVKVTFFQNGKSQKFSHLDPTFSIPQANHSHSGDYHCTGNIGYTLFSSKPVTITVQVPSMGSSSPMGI
The experiment in a line: SPR (Biacore 8K); His-tagged FcγR captured on anti-His chip.

Another assay deals with T7, FcγRIIb (human, UniProt P31994 43-217, limits assumed).
T7 construct: Bought His-tagged protein; also called CD32B/Fcgr2b Protein, Human, Recombinant (His & AVI Tag)
T7 sequence (looked up): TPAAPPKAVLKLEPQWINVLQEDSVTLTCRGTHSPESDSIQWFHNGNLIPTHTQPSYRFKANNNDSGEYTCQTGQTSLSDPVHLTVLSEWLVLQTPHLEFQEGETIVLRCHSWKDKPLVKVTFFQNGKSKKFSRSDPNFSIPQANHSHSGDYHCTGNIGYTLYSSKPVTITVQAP
The description is as above.

Another assay concerns the target T8, FcγRIIa-R131 (human, UniProt P12318 34-218, limits assumed).
T8 construct: Bought His-tagged protein; also called CD32A Protein, Human, Recombinant (167 Arg, His & AVI Tag)
T8 sequence (looked up): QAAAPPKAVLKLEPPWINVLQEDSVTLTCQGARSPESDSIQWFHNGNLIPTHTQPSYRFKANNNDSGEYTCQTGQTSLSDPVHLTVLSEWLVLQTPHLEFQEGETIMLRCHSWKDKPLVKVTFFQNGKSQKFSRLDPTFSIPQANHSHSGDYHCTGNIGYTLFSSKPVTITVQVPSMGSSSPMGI
Described as above.

Assay [4] concerns the target T5, neonatal Fc receptor (FcRn), His-tagged …. The experiment in a line: SPR kinetics assay at pH 6.0; His-tagged FcRn captured on anti-His chip, antibody 0-500 nM; mean of three experiments.
Description: as §1

T5 sequence (P55899 24-297 limits assumed, form in doubt): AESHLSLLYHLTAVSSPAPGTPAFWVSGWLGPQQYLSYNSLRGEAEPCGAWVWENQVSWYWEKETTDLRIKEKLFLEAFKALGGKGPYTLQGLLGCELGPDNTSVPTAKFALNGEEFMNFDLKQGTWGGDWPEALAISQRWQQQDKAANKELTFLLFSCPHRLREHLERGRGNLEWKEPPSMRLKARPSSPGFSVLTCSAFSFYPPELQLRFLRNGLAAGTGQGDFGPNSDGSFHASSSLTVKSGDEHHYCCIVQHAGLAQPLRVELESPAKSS
T1 sequence (P12314 16-288 limits assumed): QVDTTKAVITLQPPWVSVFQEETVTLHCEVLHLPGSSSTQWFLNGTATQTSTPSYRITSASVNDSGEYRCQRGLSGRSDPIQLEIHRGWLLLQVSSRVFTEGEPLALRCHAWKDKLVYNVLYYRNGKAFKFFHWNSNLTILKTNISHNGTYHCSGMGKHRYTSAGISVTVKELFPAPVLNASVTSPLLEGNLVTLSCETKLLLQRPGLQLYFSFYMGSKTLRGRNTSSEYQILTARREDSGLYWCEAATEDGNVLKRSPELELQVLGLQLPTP
Chain of human 4-1BB (CD137) on cells (Q07011 24-255): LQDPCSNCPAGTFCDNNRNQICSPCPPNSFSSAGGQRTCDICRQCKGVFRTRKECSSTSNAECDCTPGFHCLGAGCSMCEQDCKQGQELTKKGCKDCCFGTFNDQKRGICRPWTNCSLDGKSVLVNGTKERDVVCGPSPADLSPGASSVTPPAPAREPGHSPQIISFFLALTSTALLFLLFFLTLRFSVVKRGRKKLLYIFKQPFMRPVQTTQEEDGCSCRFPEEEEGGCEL
T2 sequence (P08637 17-208 F176V limits assumed): as the sequence (P08637 17-208) above, with F160V counted along it
Description for FcγRIIIa-F158: (§2) At the end of each cycle, the surface was regenerated using 10 mM Glycine-HCl pH 1.5 (Cytiva, cat. no. BR100354).
Description for FcγRIIIa-V158: as §2
Description for FcγRIIa-H131: as §2
Description for FcγRIIa-R131: as §2
Description for FcγRIIb: as §2
Description for FcγRIa: as §2

B1: bsIgG1-EpCAM-A37-FERL/CD137-009-HC7LC2-FEAR (bispecific antibody)
heavy 1: not shown
light 1: EIELTQSPGTLSLSPGERATLSCRASQTISNNYLAWYQQKRGQAPRLLIYAASSRATGIPDRFSGTGSGTDFTLTISRLEPEDFAVYYCAQGELYPRQFGGGTKLEIKRTVAAPSVFIFPPSDEQLKSGTASVVCLLNNFYPREAKVQWKVDNALQSGNSQESVTEQDSKDSTYSLSSTLTLSKADYEKHKVYACEVTHQGLSSPVTKSFNRGEC
heavy 2: EVQLVESGGGLVQPGRSLRLSCTASGFSLNDYWMSWVRQAPGKGLEWVGYIDVGGSLYYAASVKGRFTISRDDSKSIAYLQMNSLKTEDTAVYYCARGGLTYGFDLWGQGTLVTVSSASTKGPSVFPLAPSSKSTSGGTAALGCLVKDYFPEPVTVSWNSGALTSGVHTFPAVLQSSGLYSLSSVVTVPSSSLGTQTYICNVNHKPSNTKVDKRVEPKSCDKTHTCPPCPAPEFEGGPSVFLFPPKPKDTLMISRTPEVTCVVVAVSHEDPEVKFNWYVDGVEVHNAKTKPREEQYNSTYRVVSVLTVLHQDWLNGKEYKCKVSNKALPAPIEKTISKAKGQPREPQVYTLPPSREEMTKNQVSLTCLVKGFYPSDIAVEWESNGQPENNYKTTPPVLDSDGSFFLYSRLTVDKSRWQQGNVFSCSVMHEALHNHYTQKSLSLSPG
light 2: DIVMTQSPSSLSASVGDRVTITCQASEDISSYLAWYQQKPGKAPKRLIYGASDLASGVPSRFSASGSGTDYTFTISSLQPEDIATYYCHYYATISGLGVAFGGGTKVEIKRTVAAPSVFIFPPSDEQLKSGTASVVCLLNNFYPREAKVQWKVDNALQSGNSQESVTEQDSKDSTYSLSSTLTLSKADYEKHKVYACEVTHQGLSSPVTKSFNRGEC
B1: in [1], the “EC50 CD107a GMFI (donor 1)” value worked out at 0.0503 mg/L, the “EC50 CD107a GMFI (donor 2)” value worked out at 0.03 mg/L, the “EC50 CD107a GMFI (donor 3)” value was 0.0217 mg/L and the “EC50 CD107a GMFI (donor 4)” value is 0.012 mg/L. Further, in assay [1], the “EC50 CD107a GMFI (donor 6)” value came to 0.021 mg/L, the “EC50 GzmB GMFI (donor 1)” value was 0.0179 mg/L, the “EC50 GzmB GMFI (donor 2)” value came to 0.0176 mg/L and the “EC50 GzmB GMFI (donor 3)” value worked out at 0.0204 mg/L. In [1], the “EC50 GzmB GMFI (donor 4)” value was 0.0121 mg/L, the “EC50 GzmB GMFI (donor 5)” value amounted to 0.0201 mg/L and the “EC50 GzmB GMFI (donor 6)” value is 0.0224 mg/L. Moreover, in the assay with FcγRIa, the binding result is on record as “no binding (tested: 3,000 nM (highest concentration tested))”. The binding result with FcγRIIIa-V158 is “no binding (tested: 10,000 nM (highest concentration tested))”. Moreover, the binding result with FcγRIIIa-F158 is recorded as “no binding (tested: 10,000 nM (highest concentration tested))”.

B2: bsIgG1-b12-FERL/CD137-009-HC7LC2-FEAR (bispecific antibody)
heavy 1: QVQLVQSGAEVKKPGASVKVSCQASGYRFSNFVIHWVRQAPGQRFEWMGWINPYNGNKEFSAKFQDRVTFTADTSANTAYMELRSLRSADTAVYYCARVGPYSWDDSPQDNYYMDVWGKGTTVIVSSASTKGPSVFPLAPSSKSTSGGTAALGCLVKDYFPEPVTVSWNSGALTSGVHTFPAVLQSSGLYSLSSVVTVPSSSLGTQTYICNVNHKPSNTKVDKRVEPKSCDKTHTCPPCPAPEFERGPSVFLFPPKPKDTLMISRTPEVTCVVVDVSHEDPEVKFNWYVDGVEVHNAKTKPREEQYNSTYRVVSVLTVLHQDWLNGKEYKCKVSNKALPAPIEKTISKAKGQPREPQVYTLPPSREEMTKNQVSLTCLVKGFYPSDIAVEWESNGQPENNYKTTPPVLDSDGSFLLYSKLTVDKSRWQQGNVFSCSVMHEALHNHYTQKSLSLSPG
light 1: EIVLTQSPGTLSLSPGERATFSCRSSHSIRSRRVAWYQHKPGQAPRLVIHGVSNRASGISDRFSGSGSGTDFTLTITRVEPEDFALYYCQVYGASSYTFGQGTKLERKRTVAAPSVFIFPPSDEQLKSGTASVVCLLNNFYPREAKVQWKVDNALQSGNSQESVTEQDSKDSTYSLSSTLTLSKADYEKHKVYACEVTHQGLSSPVTKSFNRGEC
heavy 2: EVQLVESGGGLVQPGRSLRLSCTASGFSLNDYWMSWVRQAPGKGLEWVGYIDVGGSLYYAASVKGRFTISRDDSKSIAYLQMNSLKTEDTAVYYCARGGLTYGFDLWGQGTLVTVSSASTKGPSVFPLAPSSKSTSGGTAALGCLVKDYFPEPVTVSWNSGALTSGVHTFPAVLQSSGLYSLSSVVTVPSSSLGTQTYICNVNHKPSNTKVDKRVEPKSCDKTHTCPPCPAPEFEGGPSVFLFPPKPKDTLMISRTPEVTCVVVAVSHEDPEVKFNWYVDGVEVHNAKTKPREEQYNSTYRVVSVLTVLHQDWLNGKEYKCKVSNKALPAPIEKTISKAKGQPREPQVYTLPPSREEMTKNQVSLTCLVKGFYPSDIAVEWESNGQPENNYKTTPPVLDSDGSFFLYSRLTVDKSRWQQGNVFSCSVMHEALHNHYTQKSLSLSPG
light 2: DIVMTQSPSSLSASVGDRVTITCQASEDISSYLAWYQQKPGKAPKRLIYGASDLASGVPSRFSASGSGTDYTFTISSLQPEDIATYYCHYYATISGLGVAFGGGTKVEIKRTVAAPSVFIFPPSDEQLKSGTASVVCLLNNFYPREAKVQWKVDNALQSGNSQESVTEQDSKDSTYSLSSTLTLSKADYEKHKVYACEVTHQGLSSPVTKSFNRGEC
notes: also called bsIgG1-b12-FERL/CD137-HC7LC2-FEAR; bsIgG1-b12-FERLxCD137-009-HC7LC2-FEAR
B2: the binding result in [2] is on record as “no binding (tested: up to 30 µg/mL)”.

B3: IgG1-EpCAM-A37-FERL (antibody)
heavy: not shown
light: EIELTQSPGTLSLSPGERATLSCRASQTISNNYLAWYQQKRGQAPRLLIYAASSRATGIPDRFSGTGSGTDFTLTISRLEPEDFAVYYCAQGELYPRQFGGGTKLEIKRTVAAPSVFIFPPSDEQLKSGTASVVCLLNNFYPREAKVQWKVDNALQSGNSQESVTEQDSKDSTYSLSSTLTLSKADYEKHKVYACEVTHQGLSSPVTKSFNRGEC
In assay [3], B3 came in with an off-rate (koff) of 0.0413 s⁻¹. This molecule yielded an on-rate constant (kon) in assay [3] of 180000 M⁻¹ s⁻¹. Further, the binding result in the assay with FcγRIIa-H131 is on record as “no binding (tested: 10,000 nM (highest concentration tested))”; with FcγRIa, “no binding (tested: 3,000 nM (highest concentration tested))”; in the assay with FcγRIIIa-V158 it was “no binding (tested: 10,000 nM (highest concentration tested))”; with FcγRIIb, “no binding (tested: 10,000 nM (highest concentration tested))”; with FcγRIIIa-F158, “no binding (tested: 10,000 nM (highest concentration tested))”; with FcγRIIa-R131, “no binding (tested: 10,000 nM (highest concentration tested))”. In addition, the Kd in assay [4] is 0.23 µM.

B4: IgG1-CD137-009-HC7LC2-FEAR (antibody)
heavy: EVQLVESGGGLVQPGRSLRLSCTASGFSLNDYWMSWVRQAPGKGLEWVGYIDVGGSLYYAASVKGRFTISRDDSKSIAYLQMNSLKTEDTAVYYCARGGLTYGFDLWGQGTLVTVSSASTKGPSVFPLAPSSKSTSGGTAALGCLVKDYFPEPVTVSWNSGALTSGVHTFPAVLQSSGLYSLSSVVTVPSSSLGTQTYICNVNHKPSNTKVDKRVEPKSCDKTHTCPPCPAPEFEGGPSVFLFPPKPKDTLMISRTPEVTCVVVAVSHEDPEVKFNWYVDGVEVHNAKTKPREEQYNSTYRVVSVLTVLHQDWLNGKEYKCKVSNKALPAPIEKTISKAKGQPREPQVYTLPPSREEMTKNQVSLTCLVKGFYPSDIAVEWESNGQPENNYKTTPPVLDSDGSFFLYSRLTVDKSRWQQGNVFSCSVMHEALHNHYTQKSLSLSPG
light: DIVMTQSPSSLSASVGDRVTITCQASEDISSYLAWYQQKPGKAPKRLIYGASDLASGVPSRFSASGSGTDYTFTISSLQPEDIATYYCHYYATISGLGVAFGGGTKVEIKRTVAAPSVFIFPPSDEQLKSGTASVVCLLNNFYPREAKVQWKVDNALQSGNSQESVTEQDSKDSTYSLSSTLTLSKADYEKHKVYACEVTHQGLSSPVTKSFNRGEC
Molecule B4 registered a dissociation rate constant (koff) in [3] of 0.0539 s⁻¹. Also, the on-rate (kon) in assay [3] is 143000 M⁻¹ s⁻¹. The binding result with FcγRIIa-H131 is “no binding (tested: 10,000 nM (highest concentration tested))”; with FcγRIa it was “no binding (tested: 3,000 nM (highest concentration tested))”; in the assay with FcγRIIIa-V158, “no binding (tested: 10,000 nM (highest concentration tested))”; with FcγRIIb, “no binding (tested: 10,000 nM (highest concentration tested))”; in the assay with FcγRIIIa-F158, “no binding (tested: 10,000 nM (highest concentration tested))”; in the assay with FcγRIIa-R131, “no binding (tested: 10,000 nM (highest concentration tested))”. In assay [4], this molecule came in with a dissociation constant (Kd) of 0.375 µM.

As usually defined, the koff is a measure of how fast the partners let go of each other. Higher therefore signals a short-lived complex. The kon is the rate constant with which the complex forms. Higher therefore signals faster complex formation. In general, Kd refers to a measure of binding affinity in units of concentration.
